Results published in US20100076060, “Aptamers as agonists” (DUKE UNIVERSITY, published 2010).

T1: OX40 (CD134) (Mus musculus, UniProt P47741 P47741:20-211)
T1 sequence: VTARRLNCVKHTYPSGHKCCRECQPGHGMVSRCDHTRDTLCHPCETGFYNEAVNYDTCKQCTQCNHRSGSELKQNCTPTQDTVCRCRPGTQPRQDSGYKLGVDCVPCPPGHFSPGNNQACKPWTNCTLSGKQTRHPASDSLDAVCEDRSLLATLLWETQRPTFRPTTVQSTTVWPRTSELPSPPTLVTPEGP

B1: OX40 aptamer SEQ 82 (ssRNA)
RNA: GGGAGGACGAUGCGGCUUUUGAAUGCUCCCUUCACUCCAAGCGGCAGCCUAUCGUCAGACGACUCGCUGAGGAUCCGAGA
modifications: 2'-F pyrimidines, 2'-OH purines
B2: OX40 aptamer SEQ 81 (ssRNA)
RNA: GGGAGGACGAUGCGGAUACCAGCGAAUAACUCGCUGAGGAACCCGACUCACAAACAGACGACUCGCUGAGGAUCCGAGA
modifications: 2'-F pyrimidines, 2'-OH purines
B3: OX40 aptamer SEQ 84 (ssRNA)
RNA: GGGAGGACGAUGCGGCAACCCAUCCAUACCAACAUGGAGCUAAUGUUAGUCAACGCAGACGACUCGCUGAGGAUCCGAGA
modifications: 2'-F pyrimidines, 2'-OH purines
B4: OX40 aptamer SEQ 85 (ssRNA)
RNA: GGGAGGACGAUGCGGCACUAACUCCAGCGACUCCAUCGCCAUUCCAACUCUACGCCAGACGACUCGCUGAGGAUCCGAGA
modifications: 2'-F pyrimidines, 2'-OH purines
B5: OX40 aptamer SEQ 80 (ssRNA)
RNA: GGGAGGACGAUGCGGCAAACCAGCUAUUUCCUGAGGUACCCCGGCUCUCCAUGGCAGACGACUCGCUGAGGAUCCGAGA
modifications: 2'-F pyrimidines, 2'-OH purines
B6: OX40 aptamer SEQ 77 (ssRNA)
RNA: GGGAGGACGAUGCGGCAGUCUGCAUCGUAGGAAUCGCCACCGUAUACUUUCCCACCAGACGACUCGCUGAGGAUCCGAGA
modifications: 2'-F pyrimidines, 2'-OH purines
B7: OX40 aptamer SEQ 83 (ssRNA)
RNA: GGGAGGACGAUGCGGAUACCACCUAGUGUGAGGAACCCCGCUUCCUAGACUGCGCAGACGACUCGCUGAGGAUCCGAGA
modifications: 2'-F pyrimidines, 2'-OH purines
B8: OX40 aptamer SEQ 78 (ssRNA)
RNA: GGGAGGACGAUGCGGAUACCAGGAUCACAUCCUGAGGAACCCCGGCUCCCAACCUCAGACGACUCGCUGAGGAUCCGAGA
modifications: 2'-F pyrimidines, 2'-OH purines
B9: OX40 aptamer SEQ 79 (ssRNA)
RNA: GGGAGGACGAUGCGGCUUUAAUCCUCGCACUCAGCGCGCAUCACCCUUGACAUCACAGACGACUCGCUGAGGAUCCGAGA
modifications: 2'-F pyrimidines, 2'-OH purines
B10: OX40 aptamer SEQ 86 (ssRNA)
RNA: GGGAGGACGAUGCGGCCGUCAACCAAUCUCUCGCUUCACACGGCCAUGCCUCCAUCAGACGACUCGCUGAGGAUCCGAGA
modifications: 2'-F pyrimidines, 2'-OH purines

target: T1, OX40 (CD134); test: filter; 20 mM Hepes pH 7.4, 150 mM NaCl, 2 mM CaCl2; Kd not given; conditions: tags: human IgG Fc fusion; chain copies: 2; label: 5' 32P
Method: Eleven rounds of selection were performed with increasing stringency throughout the selection process by increasing the RNA: OX40 protein ratio in the selection reaction. Aptamers from rounds 9 and 11 DNA were cloned into a plasmid vector, and single colonies were sequenced and amplified by low cycle PCR amplification following by in vitro transcription. Binding constants for the clones were determined using filter-binding assays in a buffer composed of 20 mM Hepes pH 7.4, 150 mM NaCl, 2 mM CaCl2. To determine the affinities of monomeric aptamers (e.g., which may be expressed as Kd or dissociation constant), serial dilutions of murine OX40 IgG Fc fusion protein, human IgG1, or protein G were incubated with monomeric 5′ ³²P radiolabeled aptamers at 2000 cpm/μL. The mixture was passed over a stack of membranes consisting of a nitrocellulose membrane and nylon membrane through application of a vacuum. The membranes were exposed to a phosphoimager screen, scanned and quantitated using a phosphoimager. Finally, differential fractions of RNA bound were calculated and graphed using commercially available software, and affinity was then expressed as Kd. The predicted secondary structure of the resultant nucleic acid aptamers was determined by utilizing the algorithm m-fold using default settings for folding parameters. Illustrative examples of the nucleic acid aptamers isolated from the aforementioned selections against OX40 are shown in Table 2; wherein nucleic acid sequences comprising SEQ ID NOs: […] represent the variable regions from clones with binding specificity to OX40; and a nucleic acid sequence comprising SEQ ID:87 represents the RNA library constant regions, with a constant region (e.g., nucleic acid bases in positions 1-41 of […]) flanking the 5′ end of the variable regions, a constant region (e.g., nucleic acid bases in positions 82-106 of SEQ ID NO:87) flanking the 3′end of the variable regions, and the variable regions being designated by N(40) in Table 2 (nucleic acid bases in positions 42-81 of SEQ ID NO:87). It is understood by those skilled in the art that the variable regions may be flanked by constant regions other than those comprising the constant regions depicted in SEQ ID NO: 87, while still retaining binding activity for OX40.

Binding result, binds:
B1
B2
B3
B4
B5
B6
B7
B8
B9
B10
